Results published in patent publication US20090048168A1 (CASE WESTERN RESERVE UNIVERSITY, published 2009).

Columns and labels:
YFP-IP3R type 1 = experiment: acceptor photobleaching FRET, fixed COS-7 cells expressing YFP-IP3R and CFP-Bcl-2
[1] = target: Bcl-2 exogenously expressed in WEHI7.2 cells (UniProt P10415 1-239); experiment: cell-based or functional assay
Bcl-2 exogenously expressed in WEHI7.2 cells, sequence (P10415 whole entry): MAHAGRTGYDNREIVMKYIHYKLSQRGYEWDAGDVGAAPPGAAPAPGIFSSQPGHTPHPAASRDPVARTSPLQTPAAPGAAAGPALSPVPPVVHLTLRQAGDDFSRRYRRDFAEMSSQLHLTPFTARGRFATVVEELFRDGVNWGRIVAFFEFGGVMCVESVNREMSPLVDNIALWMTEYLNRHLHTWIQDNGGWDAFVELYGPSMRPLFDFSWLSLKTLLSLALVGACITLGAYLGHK

CFP-Bcl-2 (from UniProt P10415 1-239)
increase of CFP signal following YFP bleaching (FRET) (YFP-IP3R type 1): 28%

NVYTEIKCNSLLPLDDIVRV [peptide 2, aa 1389-1408 of IP3R]
anti-CD3-induced apoptosis in Bcl-2(+) WEHI7.2 cells, fold enhancement [1]: 2 fold
